These results are taken from patent US20250382352A1 (SCG CELL THERAPY PTE, published 2025).

Substitutions are numbered along the chain they refer to.

The labels stand for the following.
B1: BsAb2-5-015 (bispecific antibody)
heavy: not shown
light: QTVVTQEPSFSVSPGGTVTLTCRSSTGAVTTSNYANWVQQTPGQAPRGLIGGTNKRAPGVPDRFSGSILGDKAALTITGAQADDESDYYCALWYSNLWVFGGGTKLTVLRTVAAPSVFIFPPSDEQLKSGTASVVCLLNNFYPREAKVQWKVDNALQSGNSQESVTEQDSKDSTYSLSSTLTLSKADYEKHKVYACEVTHQGLSSPVTKSFNRGEC
notes: also called VH3VL5
B2: BsAb2-5-020 (bispecific antibody)
heavy: not shown
light: B1 light
notes: also called VH4VL5
B3: BsAb2-5-001 (bispecific antibody)
heavy: not shown
light: QTVVTQEPSLTVSPGGTVTLTCRSSTGAVTTSNYANWVQQKPGQAPRALIGGTNKRAPWTPARFSGSLLGDKAALTLSGVQPEDEAEYYCALWYSNLWVFGGGTKLTVLRTVAAPSVFIFPPSDEQLKSGTASVVCLLNNFYPREAKVQWKVDNALQSGNSQESVTEQDSKDSTYSLSSTLTLSKADYEKHKVYACEVTHQGLSSPVTKSFNRGEC
notes: also called VH1VL1
B4: BsAb2-6-002 (bispecific antibody)
heavy: not shown
light: B3 light with A48G, W59G
notes: also called VH1VL2
B5: BsAb2-5-002 (bispecific antibody)
heavy: not shown
light: B3 light with A48G, W59G
notes: also called VH1VL2
B6: BsAb2-5-022 (bispecific antibody)
heavy: not shown
light: B3 light with A48G, W59G
notes: also called VH5VL2
B7: BsAb2-5-003 (bispecific antibody)
heavy: not shown
light: B3 light with T2A, A48G, W59G, Y89F
notes: also called VH1VL3
B8: BsAb2-5-027 (bispecific antibody)
heavy: not shown
light: B3 light with A48G, W59G
notes: also called VH6VL2
B9: BsAb2-6-003 (bispecific antibody)
heavy: not shown
light: B3 light with T2A, A48G, W59G, Y89F
notes: also called VH1VL3
B10: BsAb2-5-023 (bispecific antibody)
heavy: not shown
light: B3 light with T2A, A48G, W59G, Y89F
notes: also called VH5VL3
B11: BsAb2-6-008 (bispecific antibody)
heavy: not shown
light: B3 light with T2A, A48G, W59G, Y89F
notes: also called VH2VL3
B12: BsAb2-5-021 (bispecific antibody)
heavy: not shown
light: B3 light
notes: also called VH5VL1
B13: BsAb2-5-006 (bispecific antibody)
heavy: not shown
light: B3 light
notes: also called VH2VL1
B14: BsAb2-6-022 (bispecific antibody)
heavy: not shown
light: B3 light with A48G, W59G
notes: also called VH5VL2
B15: BsAb2-5-007 (bispecific antibody)
heavy: not shown
light: B3 light with A48G, W59G
notes: also called VH2VL2
B16: BsAb2-5-008 (bispecific antibody)
heavy: not shown
light: B3 light with T2A, A48G, W59G, Y89F
notes: also called VH2VL3
B17: BsAb2-6-027 (bispecific antibody)
heavy: not shown
light: B3 light with A48G, W59G
notes: also called VH6VL2
B18: BsAb2-6-028 (bispecific antibody)
heavy: not shown
light: B3 light with T2A, A48G, W59G, Y89F
notes: also called VH6VL3
B19: BsAb2-6-023 (bispecific antibody)
heavy: not shown
light: B3 light with T2A, A48G, W59G, Y89F
notes: also called VH5VL3
B20: BsAb2-6-007 (bispecific antibody)
heavy: not shown
light: B3 light with A48G, W59G
notes: also called VH2VL2
B21: BsAb2-5-028 (bispecific antibody)
heavy: not shown
light: B3 light with T2A, A48G, W59G, Y89F
notes: also called VH6VL3
B22: BsAb2-5-026 (bispecific antibody)
heavy: not shown
light: B3 light
notes: also called VH6VL1
B23: BsAb2-6-005 (bispecific antibody)
heavy: not shown
light: B1 light
notes: also called VH1VL5
B24: BsAb2-5-025 (bispecific antibody)
heavy: not shown
light: B1 light
notes: also called VH5VL5
B25: BsAb2-5-005 (bispecific antibody)
heavy: not shown
light: B1 light
notes: also called VH1VL5
B26: BsAb2-5-030 (bispecific antibody)
heavy: not shown
light: B1 light
notes: also called VH6VL5
B27: BsAb2-6-010 (bispecific antibody)
heavy: not shown
light: B1 light
notes: also called VH2VL5
B28: BsAb2-6-030 (bispecific antibody)
heavy: not shown
light: B1 light
notes: also called VH6VL5
B29: BsAb2-6-025 (bispecific antibody)
heavy: not shown
light: B1 light
notes: also called VH5VL5
B30: BsAb2-5-004 (bispecific antibody)
heavy: not shown
light: B1 light with V38Y, G48T
notes: also called VH1VL4
B31: BsAb2-6-009 (bispecific antibody)
heavy: not shown
light: B1 light with V38Y, G48T
notes: also called VH2VL4
B32: BsAb2-6-014 (bispecific antibody)
heavy: not shown
light: B1 light with V38Y, G48T
notes: also called VH3VL4
B33: BsAb2-5-014 (bispecific antibody)
heavy: not shown
light: B1 light with V38Y, G48T
notes: also called VH3VL4
B34: BsAb2-6-019 (bispecific antibody)
heavy: not shown
light: B1 light with V38Y, G48T
notes: also called VH4VL4 (printed VH4VLA)
B35: BsAb2-6-004 (bispecific antibody)
heavy: not shown
light: B1 light with V38Y, G48T
notes: also called VH1VL4
B36: BsAb2-6-024 (bispecific antibody)
heavy: not shown
light: B1 light with V38Y, G48T
notes: also called VH5VL4
B37: BsAb2-6-029 (bispecific antibody)
heavy: not shown
light: B1 light with V38Y, G48T
notes: also called VH6VL4 (printed VH6VLA)

A word on the EC50: it is the midpoint of the concentration-response curve.

One assay deals with T1, human CD3ε recombinant protein (human, UniProt P07766 23-126).
T1 construct: also called human CD3E; huCD3ε
T1 sequence (P07766 23-126 limits assumed): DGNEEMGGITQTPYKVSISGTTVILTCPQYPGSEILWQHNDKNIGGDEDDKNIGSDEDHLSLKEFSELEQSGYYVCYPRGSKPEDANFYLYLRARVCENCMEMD
Put plainly: ELISA, recombinant protein. The protocol: (§1) Anti-HBsAg/anti-CD3 bispecific antibodies generated in Example 1 are analyzed by standard ELISA techniques for their binding properties to HBsAg, human CD3E, and rhesus CD3ε recombinant protein, respectively.
A general note: ELISA stands for enzyme-linked immunosorbent assay.
In the case of B1, the EC50 was found to be 0.27 nM.
B2: the EC50 was 0.28 nM.

The next assay deals with T2, rhesus CD3ε recombinant protein (rhesus).
T2 construct: also called rhesus CD38 [sic]
Put plainly: ELISA, recombinant protein. The method, then: as §1
In the case of B3, the EC50 was found to be 0.72 nM.
In the case of B4, the EC50 was found to be 0.14 nM.
Consider B5, for which the EC50 came to 0.3 nM.
Consider B6, for which the EC50 was 0.31 nM.
Regarding B7, the EC50 turned out to be 0.34 nM.
For B8, the EC50 came to 0.28 nM.
Regarding B9, the EC50 is 0.17 nM.
With B10, the 50% effective concentration (EC50) was 0.22 nM.
For the molecule B11, the EC50 came to 0.28 nM.
Turning to B12, the EC50 came to 3.88 nM.
On the same count and under the same terms, the result for B13 reads 2.12 nM; that for B14, 0.23 nM; that for B15, 0.4 nM.
For the molecule B16, the EC50 was determined as 0.24 nM.
For the molecule B17, the EC50 worked out at 0.21 nM.
Regarding B18, the EC50 was 0.21 nM.
As to B19, the EC50 was found to be 0.26 nM.
As to B20, the EC50 amounted to 0.19 nM.
Regarding B21, the EC50 amounted to 0.31 nM.
As for B22, the EC50 was determined as 2.09 nM.
On the same count and under the same terms, the result for B23 reads 0.18 nM; that for B1, 0.27 nM.
Regarding B24, the EC50 worked out at 0.25 nM.
As for B25, the EC50 was 0.31 nM.
On the same count and under the same terms, the result for B26 reads 0.23 nM; that for B2, 0.26 nM; that for B27, 0.23 nM.
On to B28, for which the EC50 amounted to 0.13 nM.
As to B29, the EC50 was found to be 0.5 nM.

Another assay addresses T3, HBsAg recombinant protein (hepatitis B virus).
T3 chain: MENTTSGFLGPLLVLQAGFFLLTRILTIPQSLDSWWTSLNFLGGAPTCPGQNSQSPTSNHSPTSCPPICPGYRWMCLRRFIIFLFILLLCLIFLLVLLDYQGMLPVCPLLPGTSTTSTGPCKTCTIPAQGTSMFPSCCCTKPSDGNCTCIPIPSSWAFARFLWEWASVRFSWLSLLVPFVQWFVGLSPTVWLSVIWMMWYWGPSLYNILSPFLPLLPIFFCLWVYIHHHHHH
Description: ELISA, recombinant protein. The protocol:
as §1
As to B3, the EC50 came to 0.23 nM.
With B4, the EC50 was 0.46 nM.
On to B5, for which the EC50 came to 0.16 nM.
As to B6, the EC50 is 0.16 nM.
Consider B7, for which the EC50 was 0.21 nM.
For B8, the EC50 is 0.16 nM.
Still for that read-out and setting: to B9 belongs 0.47 nM.
Turning to B10, the EC50 was found to be 0.18 nM.
As for B11, the EC50 was 0.57 nM.
B12: the EC50 amounted to 0.14 nM.
On to B13, for which the EC50 was 0.9 nM.
As for B14, the EC50 was determined as 0.77 nM.
Regarding B15, the EC50 stood at 0.23 nM.
Take B16: the EC50 was 0.19 nM.
As to B17, the EC50 was 0.72 nM.
B18: the EC50 is 0.83 nM.
B19: the EC50 was determined as 1.09 nM.
Consider B20, for which the EC50 amounted to 0.42 nM.
Take B21: the EC50 worked out at 0.19 nM.
With B22, the EC50 turned out to be 0.18 nM.
Same read-out and setting: the result for B30 reads 0.36 nM; that for B23, 0.45 nM.
The same measure, in the same setting: to B1 belongs 0.17 nM.
In the case of B24, the EC50 was 0.2 nM.
For B25, the EC50 stood at 0.15 nM.
On the same count and under the same terms, to B31 belongs 0.45 nM.
In the case of B32, the EC50 came to 0.31 nM.
The same measure, in the same setting: the result for B33 reads 0.2 nM.
Consider B34, for which the EC50 is 0.53 nM.
As for B26, the EC50 turned out to be 0.15 nM.
For B2, the EC50 was 0.16 nM.
Take B35: the EC50 was 0.43 nM.
Turning to B27, the EC50 turned out to be 0.46 nM.
Consider B28, for which the EC50 is 0.48 nM.
With B36, the EC50 is 0.51 nM.
For B29, the EC50 is 1.5 nM.
Take B37: the EC50 was 0.48 nM.
